According to patent publication US20070207960A1 (published 2007):

T1: plasma-derived human FVII (Enzyme Research Labs) (human, UniProt P08709 61-466)
T1 construct: mature; also called pdFVII; Standard FVII
T1 sequence (looked up): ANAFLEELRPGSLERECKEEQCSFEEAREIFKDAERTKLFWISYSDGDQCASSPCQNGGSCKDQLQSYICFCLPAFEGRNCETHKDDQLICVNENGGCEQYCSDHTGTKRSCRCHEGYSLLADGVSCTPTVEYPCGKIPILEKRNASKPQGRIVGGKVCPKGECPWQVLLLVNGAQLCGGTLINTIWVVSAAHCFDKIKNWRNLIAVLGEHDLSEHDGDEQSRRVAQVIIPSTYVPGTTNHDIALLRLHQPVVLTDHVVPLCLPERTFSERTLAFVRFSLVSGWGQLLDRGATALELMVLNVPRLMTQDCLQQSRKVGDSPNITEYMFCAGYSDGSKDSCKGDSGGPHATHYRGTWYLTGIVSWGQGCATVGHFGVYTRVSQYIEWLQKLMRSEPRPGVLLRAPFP


Key:
[1] = molecular target: T2, monoclonal antibody 231-7; experiment: competitive ELISA; rFVIIa competes with biotinylated plasma-derived FVII for adsorbed MoAb 231-7
T2 construct: Conformation-sensitive antibody to the FVII EGF-1 domain; also called MoAb231-7
Method: Following four washes with TBS-T w/o BSA containing 1 M NaCl, 100 μl streptavidin-alkaline phosphatase (1:25,000 dilution in TBS-T+BSA) was added for 1 hr, RT. After an additional four washes with TBS-T w/o BSA containing 1M NaCl, the colourimetric reaction was developed with 100 μl of 1 mg/ml p-nitrophenylphosphate in diethanolamine buffer (10% diethanolamine, 0.5 mM MgCl₂, pH 9.8). The reaction was stopped after 60 minutes by the addition of 25 μl of 0.5M EDTA to each well.

[2] = molecular target: T1, plasma-derived human FVII (Enzyme …); experiment: surface plasmon resonance (BIAcore); sTF captured by immobilized anti-TF antibody, FVII injected
Description: An anti-TF antibody was immobilized on the BIAcore flow cell at high density and subsequently reacted with recombinant sTF. […] Data from reference cells containing the same amount of anti-TF antibody but no sTF were subtracted to correct for non-specific binding. […]

Relative Increase in Affinity (relative to rFVIIa (wt)) [1] | Kd [2] | Binder
1.4 fold |  | rFVIIa(wt)-FFR (enzyme, human, active site covalently modified with the peptide chloromethylketone FFRck, range 1-152;range 153-406; also called rFVIIa(wt)-FFRck; rFVIIai(wt)) chain 1: ANAFLEELRPGSLERECKEEQCSFEEAREIFKDAERTKLFWISYSDGDQCASSPCQNGGSCKDQLQSYICFCLPAFEGRNCETHKDDQLICVNENGGCEQYCSDHTGTKRSCRCHEGYSLLADGVSCTPTVEYPCGKIPILEKRNASKPQGR chain 2: IVGGKVCPKGECPWQVLLLVNGAQLCGGTLINTIWVVSAAHCFDKIKNWRNLIAVLGEHDLSEHDGDEQSRRVAQVIIPSTYVPGTTNHDIALLRLHQPVVLTDHVVPLCLPERTFSERTLAFVRFSLVSGWGQLLDRGATALELMVLNVPRLMTQDCLQQSRKVGDSPNITEYMFCAGYSDGSKDSCKGDSGGPHATHYRGTWYLTGIVSWGQGCATVGHFGVYTRVSQYIEWLQKLMRSEPRPGVLLRAPFP
2.8 fold |  | rFVIIa(wt)-DEGR (enzyme, human, active site covalently modified with the peptide chloromethylketone DEGRck, range 1-152;range 153-406; also called rFVIIa(wt)-DEGRck; rFVIIai(wt)) chain 1: ANAFLEELRPGSLERECKEEQCSFEEAREIFKDAERTKLFWISYSDGDQCASSPCQNGGSCKDQLQSYICFCLPAFEGRNCETHKDDQLICVNENGGCEQYCSDHTGTKRSCRCHEGYSLLADGVSCTPTVEYPCGKIPILEKRNASKPQGR chain 2: IVGGKVCPKGECPWQVLLLVNGAQLCGGTLINTIWVVSAAHCFDKIKNWRNLIAVLGEHDLSEHDGDEQSRRVAQVIIPSTYVPGTTNHDIALLRLHQPVVLTDHVVPLCLPERTFSERTLAFVRFSLVSGWGQLLDRGATALELMVLNVPRLMTQDCLQQSRKVGDSPNITEYMFCAGYSDGSKDSCKGDSGGPHATHYRGTWYLTGIVSWGQGCATVGHFGVYTRVSQYIEWLQKLMRSEPRPGVLLRAPFP
 | 29 nM | recombinant soluble human tissue factor (receptor, UniProt P13726 33-251, looked up, extracellular domain; It was captured on the BIAcore chip by an immobilized anti-TF antibody; also called sTF; soluble human TF) SGTTNTVAAYNLTWKSTNFKTILEWEPKPVNQVYTVQISTKSGDWKSKCFYTTDTECDLTDEIVKDVKQTYLARVFSYPAGNVESTGSAGEPLYENSPEFTPYLETNLGQPTIQSFEQVGTKVNVTVEDERTLVRRNNTFLSLRDVFGKDLIYTLYYWKSSSSGKKTAKTNTNEFLIDVDKGENYCFSVQAVIPSRTVNRKSTDSPVECMGQEKGEFRE
